Data on 4 molecules can be found in PMC5645029 (Journal of medicinal chemistry, 2017).

The subject of one test is MC5R. The conditions noted are these: at 100 μM concentrations, β-galactosidase assay; cited from earlier work.
The next test addresses mMC5R (Mus musculus, UniProt P41149). Kind of test: cell-based.
For the next test, the target named is mMC4R (Mus musculus, UniProt P56450). Particulars: read-out: Ki app at mMC4R; displacement of radiolabeled NDP-MSH; cited from earlier work.
The next test addresses mMC3R (Mus musculus, UniProt P33033). Particulars: read-out: Ki app at mMC3R; displacement of radiolabeled NDP-MSH; cited from earlier work.
The next test has as its target mMC1R (Mus musculus, UniProt Q01727). The conditions noted are these: read-out: Ki app at mMC1R; displacement of radiolabeled NDP-MSH; cited from earlier work.
The target in test [1] is mouse melanocortin-5 receptor (mouse) (UniProt P41149).
Sequence of mouse melanocortin-5 receptor (mouse) (P41149 whole entry): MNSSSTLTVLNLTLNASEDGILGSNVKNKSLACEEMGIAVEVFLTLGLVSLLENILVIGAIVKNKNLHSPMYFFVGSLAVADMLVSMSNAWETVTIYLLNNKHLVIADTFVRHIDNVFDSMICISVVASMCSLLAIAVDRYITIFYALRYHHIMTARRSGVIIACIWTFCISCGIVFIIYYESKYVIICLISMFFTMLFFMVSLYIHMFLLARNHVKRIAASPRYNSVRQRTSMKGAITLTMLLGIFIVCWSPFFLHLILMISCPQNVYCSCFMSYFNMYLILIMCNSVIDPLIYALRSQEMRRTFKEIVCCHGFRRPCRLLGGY
Test [2] deals with mouse melanocortin-3 receptor (mouse) (UniProt P33033).
Sequence of mouse melanocortin-3 receptor (mouse) (P33033 whole entry): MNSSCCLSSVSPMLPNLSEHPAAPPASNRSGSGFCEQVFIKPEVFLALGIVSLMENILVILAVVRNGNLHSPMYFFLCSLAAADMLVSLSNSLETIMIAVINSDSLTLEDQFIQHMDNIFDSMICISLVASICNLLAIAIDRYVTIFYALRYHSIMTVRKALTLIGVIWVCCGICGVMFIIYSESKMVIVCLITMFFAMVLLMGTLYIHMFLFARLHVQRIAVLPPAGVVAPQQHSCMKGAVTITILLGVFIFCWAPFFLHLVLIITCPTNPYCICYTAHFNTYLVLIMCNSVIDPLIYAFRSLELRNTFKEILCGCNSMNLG
Test [3] concerns the target mouse melanocortin-4 receptor (mouse) (UniProt P56450).
The target of test [4] is mouse melanocortin-1 receptor (mouse) (UniProt Q01727).
Sequence of mouse melanocortin-1 receptor (mouse) (Q01727 whole entry): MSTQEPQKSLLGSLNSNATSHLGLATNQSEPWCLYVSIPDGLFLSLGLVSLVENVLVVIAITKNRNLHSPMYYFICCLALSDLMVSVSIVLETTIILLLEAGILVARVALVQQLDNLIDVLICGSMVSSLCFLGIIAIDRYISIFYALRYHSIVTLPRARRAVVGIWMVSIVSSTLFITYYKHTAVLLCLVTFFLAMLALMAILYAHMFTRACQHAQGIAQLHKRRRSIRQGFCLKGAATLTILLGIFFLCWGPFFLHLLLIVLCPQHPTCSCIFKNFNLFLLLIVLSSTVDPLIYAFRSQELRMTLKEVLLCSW

Non-standard residues stand in square brackets, D forms with d.

Sequence of mMC5R (P41149 whole entry): as the sequence (P41149 whole entry) above
Sequence of mMC1R (Q01727 whole entry): as the sequence (Q01727 whole entry) above
Sequence of mouse melanocortin-4 receptor (mouse) (P56450 whole entry): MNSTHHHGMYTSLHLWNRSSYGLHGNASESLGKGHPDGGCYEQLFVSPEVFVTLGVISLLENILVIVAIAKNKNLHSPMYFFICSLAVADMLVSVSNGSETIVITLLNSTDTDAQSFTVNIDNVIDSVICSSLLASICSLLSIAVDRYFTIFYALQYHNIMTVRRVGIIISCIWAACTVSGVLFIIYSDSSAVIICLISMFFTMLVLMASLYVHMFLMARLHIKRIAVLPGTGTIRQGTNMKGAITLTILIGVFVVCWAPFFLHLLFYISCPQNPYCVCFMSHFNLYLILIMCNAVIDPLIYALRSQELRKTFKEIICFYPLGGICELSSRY
Sequence of mMC4R (P56450 whole entry): as above
Sequence of mMC3R (P33033 whole entry): as the sequence (P33033 whole entry) above

Turning to `C[C@@H]1NC(=O)[C@H](CC(N)=O)NC(=O)[C@H](Cc2ccccc2)NC(=O)[C@H](Cc2ccccc2)NC(=O)[C@H](CCCNC(=N)N)NC(=O)[C@@H]2CCCN2C(=O)[C@H]2CCCN2C(=O)[C@H](Cc2ccccc2)NC1=O` [Peptide 1, c[Pro-Arg-Phe-Phe-Asn-Ala-Phe-DPro]], the “activity at the MC5R” value with MC5R was “no activity”.

As for `C[C@@H]1NC(=O)[C@H](CN)NC(=O)[C@H](Cc2ccccc2)NC(=O)[C@H](Cc2ccccc2)NC(=O)[C@H](CCCNC(=N)N)NC(=O)[C@@H]2CCCN2C(=O)[C@H]2CCCN2C(=O)[C@H](Cc2ccccc2)NC1=O` [Peptide 2, c[Pro-Arg-Phe-Phe-Dap-Ala-Phe-DPro]], the EC50 (usually the concentration that produces a half-maximal response) on mMC5R amounted to 60 nM. For the same molecule, the “activity at the MC5R” value in the test with MC5R was “no activity”.

B1: mASP: recombinant mouse agouti-signaling protein (protein, UniProt Q03288 23-131, looked up)
Agouti-signaling protein: HLALEETLGDDRSLRSNSSMNSLDFSSVSIVALNKKSKKISRKEAEKRKRSSKKKASMKKVARPPPPSPCVATRDSCKPPAPACCDPCASCQCRFFGSACTCRVLNPNC
Take B1: the Ki with mMC4R was 54 nM; with mMC3R it was 190 nM; with mMC1R, 2.6 nM.

B2: c[Pro-Arg-Phe-Phe-Phe-Ala-Phe-DPro] (peptide)
peptide: cyclo(PRFFFAF[dP])
SMILES: C[C@@H]1NC(=O)[C@H](Cc2ccccc2)NC(=O)[C@H](Cc2ccccc2)NC(=O)[C@H](Cc2ccccc2)NC(=O)[C@H](CCCNC(=N)N)NC(=O)[C@@H]2CCCN2C(=O)[C@H]2CCCN2C(=O)[C@H](Cc2ccccc2)NC1=O
In the case of B2, the agonist EC50 (cAMP AlphaScreen, HEK293 cells stably expressing the receptor) in [1], in [2], in test [3] and in test [4] was greater than 100000 nM in each case.
